Source: patent US20120003694A1 (SYRACUSE UNIVERSITY, published 2012)
Where two headings read alike, the source gives them in different places.

B1: pb2(35)-Ba (barnase fused to the first 35 amino acids of the N-terminal region of pre-cytochrome b2) (other)
chain: MLKYKPLLKISKNCEAAILRASKTRLNTIRAYGSTAQVINTFDGVADYLQTYHKLPDNYITKSEAQALGWVASKGNLADVAPGKSIGGDIFSNREGKLPGKSGRTWREADINYTSGFRNSDRILYSSDWLIYKTTDHYQTFTKIR
notes: range 1-35;domain: folded ribonuclease barnase (Ba), 110-residue; also called pb2(35)-Ba/35
B2: pb2(65)-Ba (barnase fused to the first 65 amino acids of the N-terminal region of pre-cytochrome b2) (other)
chain: MLKYKPLLKISKNCEAAILRASKTRLNTIRAYGSTVPKSKSFEQDSRKRTQSWTALRVGAILAATAQVINTFDGVADYLQTYHKLPDNYITKSEAQALGWVASKGNLADVAPGKSIGGDIFSNREGKLPGKSGRTWREADINYTSGFRNSDRILYSSDWLIYKTTDHYQTFTKIR
notes: range 1-65;domain: folded ribonuclease barnase (Ba), 110-residue
B3: pb2(95)-Ba (barnase fused to the first 95 amino acids of the N-terminal region of pre-cytochrome b2) (other)
chain: MLKYKPLLKISKNCEAAILRASKTRLNTIRAYGSTVPKSKSFEQDSRKRTQSWTALRVGAILAATSSVAYLNWHNGQIDNEPKLDMNKQKISPAEAQVINTFDGVADYLQTYHKLPDNYITKSEAQALGWVASKGNLADVAPGKSIGGDIFSNREGKLPGKSGRTWREADINYTSGFRNSDRILYSSDWLIYKTTDHYQTFTKIR
notes: range 1-95;domain: folded ribonuclease barnase (Ba), 110-residue
B4: FhuA ΔC/Δ4L protein nanopore (engineered Escherichia coli ferric hydroxamate uptake component A lacking the cork domain and loops L3, L4, L5 and L11) (other)
chain: LKEVQFKAGTDSLFQTGFDFSDSLDDDGVYSYRLTGLARSANAQQKGSEEQRYAIAPAFTWRPDDKTNFTFLSYFQNEPETGNSEGSTYSRNEKMVGYSFDHEFNDTFTVRQNLRFAENKTSQNSVYGYGVNSEGSYLARKYVVDDEKLQNFSVDTQLQSKFATGDIDHTLLTGVDFMRMRNDINAWFGYNSEGSGPYRILNKQKQTGVYVQDQAQWDKVLVTLGGRYDWADQESLNRVAGTTDKRDDKQFTWRGGVNYLFDNGVTPYFSYSESFEPSSQVGKDGNIFAPSKGKQYEVGVKYVPEDRPIVVTGAVYNLTKTNNLMADPEGSFFSVEGGEIRARGVEIEAKAALSASVNVVGSYTYTDAEYTTDTTYKGNTPAQVPKHMASLWADYTFFDGPLSGLTLGTGGRYTGSSYGDPANSFKVGSYTVVDALVRYDLARVGMAGSNVALHVNNSEGSQVVATATFRF

How the values were obtained:
[1] = target: B4; assay: single-channel recording at a higher applied voltage (+100 mV)
[2] = target: B4; assay: single-channel recording at a higher applied voltage (+120 mV)
[3] = target: T1, HIV-1 nucleocapsid protein (NCp7) (HIV-1, UniProt P04591 378-432); assay: single-channel electrical recording, planar lipid bilayer, analyte added trans, 1 M KCl, 10 mM potassium phosphate, pH 7.4
T1 construct: domain: nucleocapsid protein (NCp7), 55 amino acids; also called NCp7/55

[4] = target: B1; assay: as above
[5] = target: B1

Binder: B1
- partition time at +100 mV [1]: ~4 ms
- partition time at +120 mV [2]: ~12 ms

Binder: B2
- partition time at +100 mV [1]: ~4 ms
- partition time at +120 mV [2]: ~12 ms

Binder: B3
- partition time at +100 mV [1]: ~4 ms
- partition time at +120 mV [2]: ~12 ms

Binder: B4
- koff [3]: 9000 s⁻¹
- kon [3]: 2e+06 M⁻¹ s⁻¹
- kon [4]: 180000 M⁻¹ s⁻¹
- kon [5]: 110000 M⁻¹ s⁻¹
